Measured values as given in doi:10.1101/2025.11.26.690658 (bioRxiv, 2025).

T1: McsB(R194A), the McsB chain of the McsAZ2(R115A)-McsB(R194A) mutant (Bacillus subtilis strain 168, UniProt P37570 1-363, R194A)
T1 sequence: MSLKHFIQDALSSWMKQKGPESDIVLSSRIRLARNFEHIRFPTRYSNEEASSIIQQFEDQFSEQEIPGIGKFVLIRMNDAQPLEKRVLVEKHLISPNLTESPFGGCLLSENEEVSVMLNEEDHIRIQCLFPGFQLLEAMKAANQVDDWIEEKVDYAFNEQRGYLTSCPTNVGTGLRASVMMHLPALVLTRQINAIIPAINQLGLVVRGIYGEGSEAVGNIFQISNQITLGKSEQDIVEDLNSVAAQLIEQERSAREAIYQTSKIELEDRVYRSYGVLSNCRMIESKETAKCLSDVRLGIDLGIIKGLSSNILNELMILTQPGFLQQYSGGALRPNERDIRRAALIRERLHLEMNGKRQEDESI

B1: CtsRCTD (C-terminal domain of CtsR, residues 75–154) (domain or fragment)
chain: KMNNEVVLINNIISQINTHLSQAASDDIILRLLEDKVISEREAKMMVSVMDRSVLHIDLPERDELRARMMKAMLTSLKLK
B2: CtsR (B. subtilis transcriptional repressor), full length (natural protein)
chain: MGHNISDIIEQYLKRVLDQNGKEILEIKRSEIADKFQCVPSQINYVINTRFTSERGYIVESKRGGGGYIRIIKIKMNNEVVLINNIISQINTHLSQAASDDIILRLLEDKVISEREAKMMVSVMDRSVLHIDLPERDELRARMMKAMLTSLKLK
B3: McsB (B. subtilis protein-arginine kinase subunit), coexpressed with McsAZ2 (enzyme)
chain: MSLKHFIQDALSSWMKQKGPESDIVLSSRIRLARNFEHIRFPTRYSNEEASSIIQQFEDQFSEQEIPGIGKFVLIRMNDAQPLEKRVLVEKHLISPNLTESPFGGCLLSENEEVSVMLNEEDHIRIQCLFPGFQLLEAMKAANQVDDWIEEKVDYAFNEQRGYLTSCPTNVGTGLRASVMMHLPALVLTRQINRIIPAINQLGLVVRGIYGEGSEAVGNIFQISNQITLGKSEQDIVEDLNSVAAQLIEQERSAREAIYQTSKIELEDRVYRSYGVLSNCRMIESKETAKCLSDVRLGIDLGIIKGLSSNILNELMILTQPGFLQQYSGGALRPNERDIRRAALIRERLHLEMNGKRQEDESI
modifications: phosphoarginine at 194 and 333 (pR194, pR333)

Columns and labels:
[1] = target: McsAZ2-McsB complex (heterotetramer of a McsB dimer and two McsAZ2) (Bacillus subtilis strain 168) (UniProt P37569); experiment: cryo-EM structure
[2] = target: T1, McsB(R194A), the McsB chain of the …; experiment: SEC
cryo-EM structure = target: the molecule itself; experiment: cryo-EM structure

| Molecule | binding result [2] | further results |
| --- | --- | --- |
| McsAZ2-McsB complex (heterotetramer of a McsB dimer and two McsAZ2) (from UniProt P37569;P37570) |  | stoichiometry N [1]: 2 tetramers |
| B1 | binds |  |
| B2 | binds |  |
| B3 |  | stoichiometry N (cryo-EM structure): 2 |
